Reference: patent publication US20150322149A1 (Hoffmann-La Roche, published 2015)

What was measured:
[1] = molecular target: T1, recombinant mouse transferrin receptor (mTfR), extracellular domain (mouse, UniProt Q62351 89-763); assay: indirect ELISA on coated recombinant mTfR extracellular domain
T1 construct: extracellular domain; Bought protein; also called murine Transferrin receptor 1
Experimental: Binding of mAb31-8D3 constructs to mouse transferrin receptor (mTfR) was assessed by indirect ELISA. To this end, recombinant mTfR (extracellular domain; Sino Biological) was coated to Maxisorb microtiter plate (Nunc) at 1 μg/mL in PBS at 4° C. overnight. After blocking in 1% Cro-tein-C/PBS (blocking buffer; Roche) for 1 h at RT and 4 washes with 0.1% Tween-20/PBS (wash buffer), mAb31-8D3 constructs were added to the wells at concentrations between 0.01 and 150 nM in blocking buffer and incubated for 1 h at RT. After 4 wash steps, constructs were detected by addition of anti-human-IgG-HRP (Jackson Immunoresearch) at 1:10,000 dilution in blocking buffer […], followed by 6 washes and incubation in TMB (Sigma). Absorbance was read out at 450 nm after stopping color development with 1 N HCl.

[2] = molecular target: T2, Abeta(1-40), fibrillar, immobilized (UniProt P05067 672-711); assay: ELISA on coated fibrillar Abeta(1-40)
T2 construct: domain: Abeta(1-40); Numbers 1-40 count on the Abeta peptide, not on the APP precursor; also called Abeta fibrils; fibrillar Abeta
T2 sequence (P05067 672-711 limits assumed): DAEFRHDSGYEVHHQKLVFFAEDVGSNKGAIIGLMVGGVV
Experimental: Functionality of mAb31 was confirmed by ELISA. Briefly, Abeta(1-40) was coated at 7 μg/mL in PBS onto Maxisorp plates for 3 days at 37° C. to produce fibrillar Abeta, then dried for 3 h at RT. The plate was blocked with 1% Crotein C and 0.1% RSA in PBS (blocking buffer) for 1 h at RT, then washed once with wash buffer. mAb31 constructs were added at concentrations up to 100 nM in blocking buffer and incubated at 4° C. overnight. After 4 wash steps, constructs were detected as indicated above.

T1 sequence (Q62351 89-763): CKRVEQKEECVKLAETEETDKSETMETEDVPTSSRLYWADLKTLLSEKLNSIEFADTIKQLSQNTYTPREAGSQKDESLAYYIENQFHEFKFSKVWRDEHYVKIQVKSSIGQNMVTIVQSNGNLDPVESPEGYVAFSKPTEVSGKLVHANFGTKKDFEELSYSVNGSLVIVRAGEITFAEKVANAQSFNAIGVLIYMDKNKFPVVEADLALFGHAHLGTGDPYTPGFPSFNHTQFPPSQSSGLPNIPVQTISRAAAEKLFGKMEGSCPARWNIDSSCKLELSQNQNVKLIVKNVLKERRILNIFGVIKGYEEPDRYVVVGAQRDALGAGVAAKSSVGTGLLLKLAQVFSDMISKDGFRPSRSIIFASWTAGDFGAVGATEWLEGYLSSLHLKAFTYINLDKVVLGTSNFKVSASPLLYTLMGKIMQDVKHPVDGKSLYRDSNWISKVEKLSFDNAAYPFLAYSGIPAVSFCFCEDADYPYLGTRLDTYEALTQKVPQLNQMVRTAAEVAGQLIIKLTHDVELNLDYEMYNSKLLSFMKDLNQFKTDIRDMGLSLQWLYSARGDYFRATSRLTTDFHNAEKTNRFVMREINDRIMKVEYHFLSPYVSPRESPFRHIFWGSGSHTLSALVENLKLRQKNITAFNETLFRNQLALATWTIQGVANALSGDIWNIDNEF

binding result [1]: no binding (tested: 0.01 to 150 nM) | binding result [2]: binds
B1: mAb31 (human monoclonal antibody recognizing Abeta; INN Gantenerumab) (antibody, V domains shown)
VH: QVELVESGGGLVQPGGSLRLSCAASGFTFSSYAMSWVRQAPGKGLEWVSAINASGTRTYYADSVKGRFTISRDNSKNTLYLQMNSLRAEDTAVYYCARGKGNTHKPYGYVRYFDVWGQGTLVTVSS
VL: DIVLTQSPATLSLSPGERATLSCRASQSVSSSYLAWYQQKPGQAPRLLIYGASSRATGVPARFSGSGSGTDFTLTISSLEPEDFATYYCLQIYNMPITFGQGTKVEIKR
notes: also called anti-Aβ monoclonal antibody mAb31
